Data taken from publication PMC6662836.

Columns and labels:
alpha-synuclein (human) = assay: EMSA; conditions: 57 uM protein; 10% gel; N=3; EMSA: 20 ng DNA in 20 uL, 94 mM Tris-Cl pH 8.0, 25 mM NaCl, 1 mM EDTA, 5% ficoll; on ice 20 min then RT 30 min; 10% or 6% polyacrylamide TBE gel, 100 V …
[1] = tested on: S129-phospho-alpha-synuclein (human); assay: EMSA; conditions: 57 uM stated for GST in the comparison; 10% gel; N=3; EMSA: 20 ng DNA in 20 uL, 94 mM Tris-Cl pH 8.0, 25 mM NaCl, 1 mM EDTA, 5% ficoll; on ice 20 min then RT 30 min; 10% or 6% polyacrylamide TBE gel, 100 V …

Substance: 300 bp dsDNA
- binding signal (fraction shifted) (alpha-synuclein (human)): 0.86
- binding signal (fraction shifted) [1]: 0.58
